Test results from paper PMC12187842, “A novel molecule targeting neutrophil-mediated B-1a cell trogocytosis attenuates sepsis-induced acute lung injury” (Frontiers in Immunology, 2025).

B1: recombinant mouse CD47 (receptor, UniProt Q61735 19-140, looked up)
chain: QLLFSNVNSIEFTSCNETVVIPCIVRNVEAQSTEEMFVKWKLNKSYIFIYDGNKNSTTTDQNFTSAKISVSDLINGIASLKMDKRDAMVGNYTCEVTELSREGKTVIELKNRTVSWFSPNEK
notes: CD47, mouse, recombinant; UniProt Q61735 is printed for the in silico model; check the vendor's data sheet; also called rmCD47; source: bought: Abcam (Cat. No. AB231160)
B2: recombinant mouse (rm)Siglec-G (receptor, UniProt Q80ZE3 18-543, looked up)
chain: QMESYFLQVQRIVKAQEGLCIFVPCSFSSPEGKWLNRSPLYGYWFKGIRKPSLSFPVATNNKDKVLEWEARGRFQLLGDISKKNCSLLIKDVQWGDSTNYFFRMERGFERFSFKEEFRLQVEALTQKPDIFIPEVLEPGEPVTVVCLFSWTFNQCPAPSFSWMGDAVSFQESRPHTSNYSVLSFIPGLQHHDTELTCQLDFSRMSTQRTVRLRVAYAPRSLAISIFHDNVSVPDLHENPSHLEVQQGQSLRLLCTADSQPPATLSWVLEDQVLSWSSPVGSRTLALELPWVKAGDSGHYTCQAENRLGSQQHTLDLSVLYPPQDLRVTVSQANRTVLEILRNAISLPVLEGQSLCLVCVTYSNPPANVSWAWVTQTLIPIQSSEPGVLELPLVQREHEGEFTCAAQNPLGAQRISLSLSVHYPPQMSSPSCSWEAKGLHCNCSSRAWPAPSLRWRLGEGLLEGNSSNASFTVTFSSLGPWVNSSLSLLQELGPSLWLSCESWNTHGAQTTSVLLLPDKDSATAFSK
notes: Siglec-G, mouse, recombinant; UniProt Q80ZE3 is printed for the in silico model; check the vendor's data sheet; source: bought: R&D Systems (Cat. No. 10103-SL-050)

Tests used:
[1] = target: B2; test: SPR; OpenSPR (Nicoya), HS-Carboxyl sensor; rmCD47 immobilised by EDC/NHS coupling; rmSiglec-G as analyte at 100, 250 and 500 nM; PBS 0.05% P20, pH 7.4; 40 uL/min; 20°C; global fit for 1:1 binding; conditions: both partners purified
recombinant mouse CD47 = target: B1; test: SPR; same setting as a1 (rmCD47 immobilised on HS-carboxyl sensor); peptide C11 at 1 µM preincubated for 30 minutes with rmSiglec-G at 100, 250 and 500 nM, then injected; conditions: both partners purified
rmCD47 = test: Surface plasmon resonance: rmSiglec-G binding to immobilized rmCD47; design: species or system mouse; conditions: SPR (OpenSPR), rmCD47 immobilized on HS-carboxyl sensor, rmSiglec-G analyte 100, 250 and 500 nM, PBS 0.05% P20, pH 7.4, 20°C, 1:1 global fit; no C11; read-out: dissociation constant (KD) Siglec-G/CD47
Procedure: To examine the direct interaction between recombinant mouse (rm)Siglec-G (Cat. No. 10103-SL-050, R&D Systems, Minneapolis, MN) and rmCD47 (Cat. No. AB231160, Abcam, Cambridge, UK), surface plasmon resonance (SPR), using OpenSPR (Nicoya, Ontario, Canada), was performed. HS-Carboxyl sensor was used; rmCD47 was immobilized on the sensor surface; rmSiglec-G was in the reaction buffer, working as an analyte. Binding reactions were performed in PBS 0.05% P20, pH7.4. The carboxyl sensor was first cleaned by injecting 150 µL of 10 mM HCl, followed by injection of 150 µL of the mixture of 1 aliquot of N-ethyl-N′-[3-[…]]-carbodiimide (EDC) and 1 aliquot of N-hydroxysuccinimide (NHS) to activate the sensor surface. […] To evaluate the binding, the analyte ranging from 100 nM, 250 nM and 500 nM were injected into flow cell-1 and flow cell-2, and the real-time interaction data were analyzed by TraceDrawer (Nicoya). […] For peptide C11 efficacy on Siglec-G binding to CD47, with the same setting as Siglec-G binding with CD47 on HS-carboxyl sensor, peptide C11 at 1 µM preincubated with concentrations of rmSiglec-G 100 nM, 250 nM & 500 nM for 30 minutes and then injected into flow cell-1 and flow cell-2, and real-time interaction were analyzed ab TraceDrawer (Nicoya). […]

Row | Kd [1] | KD in the presence of 1 µM C11 (recombinant mouse CD47) | Kd (rmCD47) | Molecule
1 | 10.8 nM |  |  | B1
2 |  | 155 nM | 10.8 nM | B2
